{"source": "the DeepSol protein solubility set", "data": [{"test": "soluble on expression in E. coli; label from the status in PepcDB or PDB records", "values": [{"sequence": "MGSSHHHHHHGKTIFVIVPTNEEQVAFLEALAKQDELNFDWQNPPTEPGQPVVILIPSDMVEWFLEMLKAKGIPFTVYVEEGGSENLYFQGGGGGGGSEVEASPRVAMIVLEGFSGTVFHALMESGVHMPNIAHMLSSQKGVWAECATSSQSSCARAVVVENDTSGEVYVSAAAAMTSLFSGVSPREHQVYNGSLESMSMYANTSKMNPSIAKRVKDAGMKVSVVGTSHAINSLSIALGSCSRPGVLDMECAASREELLRASVDEYSGSVQLDCLASSSCNMDTRKMTSPTDPQQCSSGQAEAQFTRHLNSIFGGLAYSTQTQEAAMQNTVADNLDNSLFVFHFDALAVRAASTYLPDFQYNASSKEYVAQVYLLDALVGQVISYVRDRARSQKENWLIVGVSNHGGDDKPYAIPNPVSTSENTIAFFMATYTNNMKRFVTLAPLQRPVTQLDVLPTVLTWLNVVPFDAETSAVTAGTNTTAASPAVEARVMERRHFEGLVQGICSSGASLKNCAL", "soluble on expression in E. coli": "not soluble"}, {"sequence": "MGSSHHHHHHGKTIFVIVPTNEEQVAFLEALAKQDELNFDWQNPPTEPGQPVVILIPSDMVEWFLEMLKAKGIPFTVYVEEGGSENLYFQGGGGGGSRPYGATFIAWGLAFALRAWRCLPRERVHMCRAAHRLADAKMRQRGVGKVLMPYTGASRLMPVASYSRGNRLPSCSSTEATTRCHGFLAIGSRSPTPTHQARVDMGDNDITANSSGKTSGAAAGSAPSSCDLFLSASALESSAQFLALTHVASRQEPSSSITDRNAASVTPSGSRSASGRRAPRRSHEPFTCMSRACALDFTTLSEHGSEVPSVEPASLSAMQPTTSSSSRMHGCTGAAMTTVSLPQTPVVSGAVQSPAWLPAELARTFSDSKTPLSVCSQPSKVGPSYSQMDTLSPPTYEEAVLSSSRSSSSPRIAVLSTTMRSQRLSPAVARDGAP", "soluble on expression in E. coli": "soluble"}, {"sequence": "MGSSHHHHHHGSLPPREDAARVARFVTHVSDWGALATISTLEAVRGRPFADVLSLSDGPPGAGSGVPYFYLSPLQLSVSNLQENPYATLTMTLAQTNFCKKHGFDPQSPLCVHIMLSGTVTKVNETEMDIAKHSLFIRHPEMKTWPSSHNWFFAKLNITNIWVLDYFGGPKIVTPEEYYNVTVQ", "soluble on expression in E. coli": "soluble"}, {"sequence": "MGSSHHHHHHMQPEHVKERYKNFLNQHVGPDMSVQRCNSEIGPNNRKITLSGTDNGCKPVNTFILANKRLIKTVCGRAGSPQGNMVRSNQPFPVVKCVLNNGERHPYCEYRGTRSTRYIVLKCEEGWPVHYHEDEVNVG", "soluble on expression in E. coli": "soluble"}, {"sequence": "MGSSHHHHHHSQDPNSAAPAAEAPLSHVQQALAELAKPKDDPTRKHVCVQVAPAVRVAIAETLGLAPGATTPKQLAEGLRRLGFDEVFDTLFGADLTIMEEGSELLHRLTEHLEAHPHSDEPLPMFTSCCPGWIAMLEKSYPDLIPYVSSCKSPQMMLAAMVKSYLAEKKGIAPKDMVMVSIMPCTRKQSEADRDWFCVDADPTLRQLDHVITTVELGNIFKERGINLAELPEGEWDNPMGVGSGAGVLFGTTGGVMEAALRTAYELFTGTPLPRLSLSEVRGMDGIKETNITMVPAPGSKFEELLKHRAAARAEAAAHGTPGPLAWDGGAGFTSEDGRGGITLRVAVANGLGNAKKLITKMQAGEAKYDFVEIMACPAGCVGGGGQPRSTDKAITQKRQAALYNLDEKSTLRRSHENPSIRELYDTYLGEPLGHKAHELLHTHYVAGGVEEKDEKK", "soluble on expression in E. coli": "soluble"}, {"sequence": "MGSSHHHHHHSSGLEVLFQGPAMATKKVHIISHSHWDREWYMAYEQHHMRLINLIDDLLEVFQTDPDFHSFHLDGQTIILDDYLKVRPEREPEIRQAIASGKLRIGPFYILQDDFLTSSESNVRNMLIGKEDCDRWGASVPLGYFPDTFGNMGQTPQLMLKAGLQAAAFGRGIRPTGFNNQVDTSEKYSSQFSEISWQGPDNSRILGLLFANWYSNGNEIPTTEAEARLFWDKKLADAERFASTKHLLMMNGCDHQPVQLDVTKAIALANQLYPDYEFVHSCFEDYLADLADDLPENLSTVQGEITSQETDGWYTLANTASARIYLKQANTRVSRQLENITEPLAAMAYEVTSTYPHDQLRYAWKTLMQNHPHDSICGCSVDSVHREMMTRFEKAYEVGHYLAKEAAKQIADAIDTRDFPMDSQPFVLFNTSGHSKTSVAELSLTWKKYHFGQRFPKEVYQEAQEYLARLSQSFQIIDTSGQVRPEAEILGTSIAFDYDLPKRSFREPYFAIKVRLRLPITLPAMSWKTLALKLGNETTPSETVSLYDDSNQCLENGFLKVMIQTDGRLTITDKQSGLIYQDLLRFEDCGDIGNEYISRQPNHDQPFYADQGTIKLNIISNTAQVAELEIQQTFAIPISADKLLQAEMEAVIDITERQARRSQEKAELTLTTLIRMEKNNPRLQFTTRFDNQMTNHRLRVLFPTHLKTDHHLADSIFETVKRPNHPDATFWKNPSNPQHQECFVSLFDGENGVTIGNYGLNEYEILPDTNTIAITLLRSVGEMGDWGYFPTPEAQCLGKHSLSYSFESITKQTQFASYWRAQEGQVPVITTQTNQHEGTLAAEYSYLTGTNDQVALTAFKRRLADNALITRSYNLSNDKTCDFSLSLPNYNAKVTNLLEKDSKQSTPSQLGKAEILTLAWKKQ", "soluble on expression in E. coli": "soluble"}, {"sequence": "MGSSHHHHHHSSGLEVLFQGPLHMGIKYQKIGDVVIVKKELSEDEIREIVKRTKCKAILLYTTQITGEFRTPHVKILYGKETETIHKEYGCLFKLDVAKIMWSQGNIEERKRMAFISNENEVVVDMFAGIGYFTIPLAKYSKPKLVYAIEKNPTAYHYLCENIKLNKLNNVIPILADNRDVELKDVADRVIMGYVHKTHKFLDKTFEFLKDRGVIHYHETVAEKIMYERPIERLKFYAEKNGYKLIDYEVRKIKKYAPGVWHVVVDAKFERI", "soluble on expression in E. coli": "soluble"}, {"sequence": "MGSSHHHHHHSSGLVPRGGSHMSAASSIFDFEVLDADHKPYNLVQHKGSPLLIYNVASKCGYTKGGYETATTLYNKYKSQGFTVLAFPCNQFGGQEPGNEEEIKEFVCTKFKAEFPIMAKINVNGENAHPLYEYMKKTKPGILKTKAIKWNFTSFLIDRDGVPVERFSPGASVKDIEKKLIPLLESTQSA", "soluble on expression in E. coli": "soluble"}, {"sequence": "MGSSHHHHHHSSGLVPRGSHASMAAEMDWDKTVGAAEDVRRIFEHIPAILVGLEGPDHRFVAVNAAYRGFSPLLDTVGQPAREVYPELEGQQIYEMLDRVYQTGEPQSGSEWRLQTDYDGSGVEERYFDFVVTPRRRADGSIEGVQLIVDDVTSRVRARQAAEARVEELSERYRNVRDSATVMQQ", "soluble on expression in E. coli": "soluble"}, {"sequence": "MGSSHHHHHHSSGLVPRGSHMDFYKLDEKLKELKRKRVDVSIKSRKLADREIQEVSANRKPRVYSMEDVNDADESVGDTESPEKEKAFHYTVQEYDAWERRHPQGKTGQSQRGGISYDQLAKLSYEKTLRNLATQTQNSSKQDSSADEEDNKNVPKKGRIGKVQKDTKTGKITIADDDKLVNKLAVSLQSESKKRYEARKRQMQNAKTLYGVESFINDKNKQFNEKLSRESKGSE", "soluble on expression in E. coli": "soluble"}, {"sequence": "MGSSHHHHHHSSGLVPRGSHMFANDATFEIKKCDLHRLEEGPPVTTVLTREDGLKYYRMMQTVRRMELKADQLYKQKIIRGFCHLCDGQEACCVGLEAGINPTDHLITAYRAHGFTFTRGLSVREILAELTGRKGGCAKGKGGSMHMYAKNFYGGNGIVGAQVPLGAGIALACKYNGKDEVCLTLYGDGAANQGQIFEAYNMAALWKLPCIFICENNRYGMGTSVERAAASTDYYKRGDFIPGLRVDGMDILCVREATRFAAAYCRSGKGPILMELQTYRYHGHSMSDPGVSYRTREEIQEVRSKSDPIMLLKDRMVNSNLASVEELKEIDVEVRKEIEDAAQFATADPEPPLEELGYHIYSSDPPFEVRGANQWIKFKSVS", "soluble on expression in E. coli": "soluble"}, {"sequence": "MGSSHHHHHHSSGLVPRGSHMKKRQLGTSDLHVSELGFGCMSLGTDETKARRIMDEVLELGINYLDTADLYNQGLNEQFVGKALKGRRQDIILATKVGNRFEQGKEGWWWDPSKAYIKEAVKDSLRRLQTDYIDLYQLHGGTIDDPIDETIEAFEELKQEGVIRYYGISSIRPNVIKEYLKRSNIVSIMMQYSILDRRPEEWFPLIQEHGVSVVVRGPVARGLLSRRPLPEGEGYLNYRYDELKLLRESLPTDRPLHELALQYCLAHDVVATVAAGASSIDQVKANVQAVEATPLTAEERQHIQKLAKAAVYEQHRE", "soluble on expression in E. coli": "soluble"}, {"sequence": "MGSSHHHHHHSSGLVPRGSHMLDIMSDDGDITAVSSGNRDIAQVVTENNKNYLVLYASQTGTAEGFAKAFSKELVAKFNLNVMCADVENYDFESLNDVPVIVSIFISTYGEGDFPDGAVNFEDFICNAEAGALSNLRYNMFGLGNSTYEFFNGAAKKAEKHLSAAGAIRLGKLGEADDGAGTTDEDYMAWKDSILEVLKDELHLDEQEAKFTSQFQYTVLNEITDSMSLGEPSAHYLPSHQLNRNADGIQLGPFDLSQPYIAPIVKSRELFSSNDRNCIHSEFDLSGSNIKYSTGDHLAVWPSNPLEKVEQFLSIFNLDPETIFDLKPLDPTVKVPFPTPTTIGAAIKHYLEITGPVSRQLFSSLIQFAPNADVKEKLTLLSKDKDQFAVEITSKYFNIADALKYLSDGAKWDTVPMQFLVESVPQMTPRYYSISSSSLSEKQTVHVTSIVENFPNPELPDAPPVVGVTTNLLRNIQLAQNNVNIAETNLPVHYDLNGPRKLFANYKLPVHVRRSNFRLPSNPSTPVIMIGPGTGVAPFRGFIRERVAFLESQKKGGNNVSLGKHILFYGSRNTDDFLYQDEWPEYAKKLDGSFEMVVAHSRLPNTKKVYVQDKLKDYEDQVFEMINNGAFIYVCGDAKGMAKGVSTALVGILSRGKSITTDEATELIKMLKTSGRYQEDVW", "soluble on expression in E. coli": "soluble"}, {"sequence": "MGSSHHHHHHSSGLVPRGSHMSQSTYSLEQLADFLKVEFQGNGATLLSGVEEIEEAKTAHITFLDNEKYAKHLKSSEAGAIIISRTQFQKYRDLNKNFLITSESPSLVFQKCLELFITPVDSGFPGIHPTAVIHPTAIIEDHVCIEPYAVVCQHAHVGSACHIGSGSVIGAYSTVGEHSYIHPRVVIRERVSIGKRVIIQPGAVIGSCGFGYVTSAFGQHKHLKHLGKVIIEDDVEIGANTTIDRGRFKHSVVREGSKIDNLVQIAHQVEVGQHSMIVAQAGIAGSTKIGNHVIIGGQAGITGHICIADHVIMMAQTGVTKSITSPGIYGGAPARPYQEIHRQVAKVRNLPRLEERIAALEKLVQKLEALSEQH", "soluble on expression in E. coli": "soluble"}, {"sequence": "MGSSHHHHHHSSGLVPRGSHMSRVTVLQSQLPAYNRLKTPYESELIATVKKLTTPGKGLLAADESIGSCTKRFQPIGLSNTEEHRRQYRALMLEAEGFEQYISGVILHDETVGQKASNGQTFPEYLTARGVVPGIKTDMGLCPLLEGAEGEQMTEGLDGYVKRASAYYKKGCRFCKWRNVYKIQNGTVSESAVRFNAETLARYAILSQMSGLVPIVEPEVMIDGKHDIDTCQRVSEHVWREVVAALQRHGVIWEGCLLKPNMVVPGAESGKTAAPEQVAHYTVMTLARTMPAMLPGVMFLSGGLSEVQASEYLNAINNSPLPRPYFLSFSYARALQSSALKAWGGKESGLAAGRRAFLHRARMNSMAQLGKYKRSDDDASSSSLYVKGNTY", "soluble on expression in E. coli": "soluble"}, {"sequence": "MGSSHHHHHHSSGLVPRGSHMTAEEMKATESGAQSAPLPMEGVDISPKQDEGVLKVIKREGTGTEMPMIGDRVFVHYTGWLLDGTKFDSSLDRKDKFSFDLGKGEVIKAWDIAIATMKVGEVCHITCKPEYAYGSAGSPPKIPPNATLVFEVELFEFKGEDLTEEEDGGIIRRIQTRGEGYAKPNEGAIVEVALEGYYKDKLFDQRELRFEIGEGENLDLPYGLERAIQRMEKGEHSIVYLKPSYAFGSVGKEKFQIPPNAELKYELHLKSFEKAKESWE", "soluble on expression in E. coli": "soluble"}, {"sequence": "MGSSHHHHHHSSGLVPRGSMEFVKDLKTPEDYINNELKYGAHNYDPIPVVLKRAKGVFVYDVNDKRYYDFLSAYSSVNQGHCHPNILNAMINQAKNLTICSRAFFSVPLGICERYLTNLLGYDKVLMMNTGAEANETAYKLCRKWGYEVKKIPENMAKIVVCKNNFSGRTLGCISASTTKKCTSNFGPFAPQFSKVPYDDLEALEEELKDPNVCAFIVEPIQGEAGVIVPSDNYLQGVYDICKKYNVLFVADEVQTGLGRTGKLLCVHHYNVKPDVILLGKALSGGHYPISAVLANDDIMLVIKPGEHGSTYGGNPLAASICVEALNVLINEKLCENAEKLGGPFLENLKRELKDSKIVRDVRGKGLLCAIEFKNELVNVLDICLKLKENGLITRDVHDKTIRLTPPLCITKEQLDECTEIIVKTVKFFDERF", "soluble on expression in E. coli": "soluble"}]}]}
